# According to article doi:10.1101/2022.11.07.515376 (bioRxiv, 2022):
# Columns and labels:
# [1] = molecular target: the molecule itself; experiment: SEC
# [2] = molecular target: the molecule itself; experiment: ITC
# [3] = molecular target: the molecule itself; experiment: AUC
protein,measurement,setting,value
"MSMEG_2027, full-length (as used in the solution studies) (enzyme) MTDAELSPTDWVREQTERILEQGTTDGVHVLDRPIVLFTTTGAKSGKKRYVPLMRVEENGKYAMVASKGGDPKHPSWYFNVKANPTVSVQDGDKVLPDRTARELEGEEREHWWKLAVEAYPPYAEYQTKTDRLIPVFIVE",stoichiometry N,[1],2
same,Kd,[2],~1200 nM
same,Kd,[3],~8 µM
